Data reported in the nanobody polyreactivity screen of Harvey et al. (2022).

Assay: yeast display, Sf9 membrane polyspecificity reagent, FACS + sequencing; frameworks hold sequencing errors
How it was run: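 Nanobodies came from a synthetic yeast display library in Saccharomyces cerevisiae BJ5465, induced with galactose for 36–48 hours and stained for 1 hour at 4 °C with 10% biotinylated, detergent-solubilized Sf9 membrane reagent. Cells were enriched on streptavidin microbeads and then FACS-sorted, with low and high (top ~1%) gates set on anti-HA fluorescence for expression and streptavidin fluorescence for reagent binding. Each polyreactivity label reflects the gate a clone came from. Genes were amplified by colony PCR, sequenced by MiSeq 2 × 250 and filtered by CDR length.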

Row | Sequence | polyreactivity (PSR sort gate)
1 | QVQLVESGGGLVQAGGSLRLSCAASGNIFVINAMGWYRQAPGKERELVAAINWTGGNTYYADSVKGRFTISRDNAKNTFYLQMNSLKPEDTAVYYSAADRRWFVWGLGYWGQGTQVTVSS | low polyreactivity
2 | QVQLVESGGGLVQAGGSLRLSCAASGRIFEAYAMGWYRQAPGKERELVAAISGSGGSTYYADSVKGRFTISRDNAKNTVYLQMNSLKPEDTAVYYCAADDYYRVYWGQGTQVTVSS | high polyreactivity
3 | QVQLVESGGGLVQAGGTLRLSCAASGSIFYGNAMGWYREAPGKERQLVAAIDGTGASTYYADSVKGRFTISRDNAKNPVYLQMNSLKPEDTAVYYCNKALTSKDYPVRTVERDYWGQGTQVTVSS | low polyreactivity
4 | QVQLVESGGGLVQAGGSLRLSCAASGRIFLINAMGWSRQAPGKERELDATISRSGASTDYADSVKGRFTISRDNAKNTVYLQMNSLKPEDTAVYYCNAKVYKRRVVPYDYWGQGTQVTVSS | high polyreactivity
5 | QVQLVESGGGLVQAGGSLRLSWAASGSTFGFYAMGWYRQAPGKERELVASISSGGTTYHADSVKGRFTISRDNAKNTVYLQMNSLKPEDTAVYYSAAFYVATSKLGYWGQGSQVTVSS | low polyreactivity
6 | QVQLVESGGGLVQAGGSLRLRCAASGSTFAYYAMGWYRQAPGKDRELVARIRSSGVSTYYADSVKGRFTISRDNPNNTVSLQMNTLKPEDTAGYYCHTAYAGVRYDSWGQGTQVTVSS | low polyreactivity
7 | QVQLVESGGGLVQAGGSLRLSCAASGRTFFVYAMGWYRQAPGKERELVASITLSRGSTYYADSVKGRFTISRDNAKNTCYLQMNSLKPEDTAVYYCSKGWSRDNDREREDEYWGQGTQVTVSS | low polyreactivity
8 | QVQLQESGGGLVQAGGILRLSCAACGNIFPSAVMGWYRQALAKEREFVATINSGSNTYYADSVKGRFTISRDNAKNTVYLQMNSLKLEDTAVYYCAAYFKLQAWHTYWGQGTQVTVSS | low polyreactivity
9 | QVQLVESGGGLVQAGGSLRLSCAASGSIIYTYAMGWYRQAPGKVRELVAAITGSDNTNYADSVKGRFTISRDNAKNTVYLQMNSLNPEDTAVYYCAADFPWSTKSWHPDSGDSWGQGTQVTVSS | low polyreactivity
10 | QVQLVESGGGLVQAGGSLRISCAASGFIFEQYAMGWYRQAPGKERELVARISWRGGSTYYADSVKGRFTISRDNAKNTVYLQMNSLKPEDTAVYYCAADVYTRFWRVYRFDYWGQGTQVTVSS | low polyreactivity
11 | QLQLVESVGGLVQAGGSLRLSCAGSGRIFGRSAMGWYTHAPGKHRALVAAISRSGGSTYYADSVKGRVTISRDKAKNTVYLQMYSLKPEDTAVYNCNRRYITYNDDYWGQGTQVTVSS | high polyreactivity
12 | QVQLVESGGGIVQAGGSLRLSCAASGSIFSYYAMGWYRMAPGKERELVAGITGGGSTDYADSLKGRFTISRDNAKNTVYLQMNSLKPEDTAVYYCAKRYVPWRPYDYWGKGTQVTVSS | low polyreactivity
13 | QVQLVESGRGLVQAGGSLRLSCAASGITFSYYTMGWYRQAPGKERELVAAINWNGGSTYYADSVKGRFTISRDNAKNTVYLQMNSLKPEDTAVYYCAREKWPSQYDYWGQGTQVTVSS | low polyreactivity
14 | QVQLVESGGGLVQAGGSLSLSSAASGFTSTLNDMGWYRQAPGKERELVAAISNGGSTYYADSVKGRFTISRDNAKNTVYLQMNSLKPEDTAVYYCAVTATAPQEGDYWGQGTQVTVSS | low polyreactivity
15 | QVQLVESGGGLVQAGGSLRISCAASGSIFWANAMGWYRQAPWKERELVAAISSSGGRTYYADSVKGRFTISRDNAKNTVYLQMNSLKPEDSAVYDCNKLRLAYYEQGDYWGQGTQVNVSS | high polyreactivity
16 | QVQIVESGRGLFQAGGSLRISCPASGYIFLANAMGLYRQAPGKERELVAAITSGGGGTYYADSVKARFTISGDNAKNPVYLLMNTLKPEDTAVYHCAADHGRDGSSIEYWGHGTQVTVSS | low polyreactivity
17 | QVQLVESWGGLVQAGGSLRLSCAASGFIMQWYAMGWDRQAPGKERELVAGISSGTSTYYADSVKGRFTISRDNAKNTVYFQMNSLKAEDTAVYYCTWFVFDPEDYWGQGTQVTVSS | low polyreactivity
18 | QVQLVESGGGLVQAGGSLLLSCAASGRIIGYYAMGLYRQAPVKERELVAAISRRGGSTYYADSVKGRFTISRDNAKNTVYLQINSLKPEDTAVYYCNADRVLTRPRYDYWGQGTQVTVSS | low polyreactivity
19 | QVQLVESGGGLVHAGGSLRLSCAASGLTFAYNTMGWYRQAPGKEREFVASISSSGGNTYYADSVKGRFTISRDNAKNTVYVQMNSLKPEDTAVYFCAAKKKYHYVASYKRFEYWGQGTQVTVSS | low polyreactivity
20 | QVQLVESGGGLVQAGGTLRLSCAASGGTFVSRAMGWYRQAPGKERELVAAISFSGDSTYYADSVKGRFTISRDNAKNTVYLQMNSLKPEDTAVYYCRFYSYWSWLGREYDYWGQGTQVTVSS | low polyreactivity
21 | QVQLVESGGGLVQAGGSLRLSCAASGSTFSKNAMGWYRPAPGKERELVAAIRSRGGSTYYADSVKGRFTISRDNAKNTVYLQMNSLKPEDTAVYYCAAQYFWYVYSYDYWGQGTQVTVSS | high polyreactivity
